# Reference: US20260062463A1 (KANGYUAN BIOMEDICAL TECH DALIAN, published 2026)
# B1: A4-052 (VHH)
# VHH: VQLQESGGGLVQPGGSLRLSCAASGSIFIINTMGWYRQAPGKQRELVAAVTRGGSTNYADSVKGRFTISRDNAKNTVYLQMNSLRPEDTAVYYCHVDEVRQSSWTTSNLWGQGTQVTVSS
# B2: A4-C8 (bispecific antibody)
# chain: VQLQESGGGLVQPGGSLRLSCAASGSNFRINTMGWYRQAPGKQRELVAPVTRGGSTNYADSVKGRFTISRDNAKNTVYLQMNSLRPEDTAVYYCHVDEVRESSWTTSNLWGQGTQVTVSSGGGGSGGGGSGGGGSVQLQESGGGLVQPGGSLRLSCAASGSNFSINTMGWYRQAPGKQRELVATVTRGGDTNYADSVKGRFTISRDNAKNTVYLQMNSLRPEDTAVYYCHVDEIRESSWTTSNLWGQGTQVTVSSGGGGSGGGGSGGGGSVQLQESGGGLVQPGGSLRLSCAASGSNFSINTMGWYRQAPGKQRELVAALTRGGSTNYADSVKGRFTISRDNAKNTVYLQMNSLRPEDTAVYYCHVDEVRESSWTTSNLWGQGTQVTVSS
# B3: A4-D5 (other)
# chain: VQLQESGGGLVQPGGSLRLSCVASGSSFSINTMGWYRRAPGKQRELVATVTRDGSTNYANSVKGRFTISRDNAKNTVYLQMNSLRPEDTAVYYCHVDEVRQSSWTTSNLWGQGTQVTVSSGGGGSGGGGSGGGGSVQLQESGGGLVQPGGSLRLSCVASGSSFSINTMGWYRRAPGKQRELVATVTRDGSTNYANSVKGRFTISRDNAKNTVYLQMNSLRPEDTAVYYCHVDEVRQSSWTTSNLWGQGTQVTVSSGGGGSGGGGSGGGGSVQLQESGGGLVQPGGSLRLSCVASGSSFSINTMGWYRQAPGKQRELVATVTRDGSTNYANSVKGRFTISRDNAKNTVYLQMNSLRPEDTAVYYCHVDEVRQSSWTTSNLWGQGTQVTVSSGGGGSGGGGSGGGGSVQLQESGGGLVQPGGSLRLSCVASGSSFSINTMGWYRRAPGKQRELVATVTRDGSTNYANSVKGRFTISRDNAKNTVYLQMNSLRPEDTAVYYCHVDEVRQSSWTTSNLWGQGTQVTVSS
# B4: A4-D2 (VHH)
# chain: VQLQESGGGLVQAGGSLRLSCAASGRGFSINTMGWYRQAPGKQRELVAAVTRGGTTNYADSVKGRFTISRDNAKNTVYLQMNSLRPEDTAVYYCHVDEVRQSSWTTSNLWGQGTQVTVSSGGGGSGGGGSGGGGSVQLQESGGGLVQAGGSLRLSCAASGRGFSINTMGWYRQAPGKQRELVAAVTRGGTTNYADSVKGRFTISRDNAKNTVYLQMNSLRPEDTAVYYCHVDEVRQSSWTTSNLWGQGTQVTVSSGGGGSGGGGSGGGGSVQLQESGGGLVQAGGSLRLSCAASGRGFSINTMGWYRQAPGKQRELVAAVTRGGTTNYADSVKGRFTISRDNAKNTVYLQMNSLRPEDTAVYYCHVDEVRQSSWTTSNLWGQGTQVTVSSGGGGSGGGGSGGGGSVQLQESGGGLVQAGGSLRLSCAASGRGFSINTMGWYRQAPGKQRELVAAVTRGGTTNYADSVKGRFTISRDNAKNTVYLQMNSLRPEDTAVYYCHVDEVRQSSWTTSNLWGQGTQVTVSS
# Experiments:
# AAV8 [1] = target: T1, AAV8 (adeno-associated virus 8); experiment: SPR, AAV on CM5 chip
# T1 construct: also called adeno-associated virus serotype 8
# Method: AAV was amine-coupled to a CM5 sensor chip at a density of 500-800 response units (RU). Nanobodies were injected at seven concentrations (1-100 nM) with a flow rate of 45 μL/min, and chip regeneration was performed using glycine-HCl (pH 1.5).
# AAV8 [2] = target: T2, AAV8 (adeno-associated virus 8, Assembled 60-mer capsid of VP1/VP2/VP3 (nested products of one cap gene), amine-coupled to a CM5 chip; the letters give one VP1 subunit only.); experiment: SPR, AAV amine-coupled to CM5 chip
# T2 construct: also called adeno-associated virus serotype 8
# T2 chain: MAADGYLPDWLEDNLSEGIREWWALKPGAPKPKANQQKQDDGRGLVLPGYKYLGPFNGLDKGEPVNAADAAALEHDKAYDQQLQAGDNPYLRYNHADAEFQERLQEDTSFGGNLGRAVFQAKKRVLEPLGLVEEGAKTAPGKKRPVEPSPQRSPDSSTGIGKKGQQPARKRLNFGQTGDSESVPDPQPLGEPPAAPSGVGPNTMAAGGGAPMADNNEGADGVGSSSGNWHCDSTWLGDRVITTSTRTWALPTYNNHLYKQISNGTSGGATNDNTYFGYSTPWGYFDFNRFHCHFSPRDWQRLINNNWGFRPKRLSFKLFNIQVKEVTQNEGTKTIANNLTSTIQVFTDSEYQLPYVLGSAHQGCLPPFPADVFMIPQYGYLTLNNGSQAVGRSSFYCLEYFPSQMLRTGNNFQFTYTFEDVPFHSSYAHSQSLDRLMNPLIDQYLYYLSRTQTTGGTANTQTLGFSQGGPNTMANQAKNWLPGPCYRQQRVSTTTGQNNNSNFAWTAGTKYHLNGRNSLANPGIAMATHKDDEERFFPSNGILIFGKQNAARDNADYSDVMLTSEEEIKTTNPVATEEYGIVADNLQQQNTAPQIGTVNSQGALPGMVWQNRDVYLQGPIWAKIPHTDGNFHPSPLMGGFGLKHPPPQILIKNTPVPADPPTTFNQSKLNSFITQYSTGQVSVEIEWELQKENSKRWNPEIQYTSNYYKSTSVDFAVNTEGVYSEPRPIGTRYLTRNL
# AAV9 = target: T3, AAV9 (adeno-associated virus 9, Assembled 60-mer capsid of VP1/VP2/VP3 (nested products of one cap gene), amine-coupled to a CM5 chip; the letters give one VP1 subunit only.); experiment: SPR, AAV amine-coupled to CM5 chip
# T3 construct: also called adeno-associated virus serotype 9
# AAV5 = target: T4, AAV5 (adeno-associated virus 5, Assembled 60-mer capsid of VP1/VP2/VP3 (nested products of one cap gene), amine-coupled to a CM5 chip; the letters give one VP1 subunit only.); experiment: SPR, AAV amine-coupled to CM5 chip
# T4 construct: also called adeno-associated virus serotype 5
binder,measurement,setting,value
B1,kon,AAV8 [1],31800 M⁻¹ s⁻¹
B2,Kd,AAV8 [2],2.81 nM
same,koff,AAV8 [2],0.00037 s⁻¹
same,kon,AAV8 [2],132000 M⁻¹ s⁻¹
same,Kd,AAV9,0.279 nM
same,koff,AAV9,5e-05 s⁻¹
same,kon,AAV9,179000 M⁻¹ s⁻¹
same,Kd,AAV5,0.69 nM
same,koff,AAV5,0.00013 s⁻¹
same,kon,AAV5,188000 M⁻¹ s⁻¹
B3,Kd,AAV8 [2],0.0836 nM
same,koff,AAV8 [2],5e-06 s⁻¹
same,kon,AAV8 [2],59800 M⁻¹ s⁻¹
same,Kd,AAV9,0.117 nM
same,koff,AAV9,4.3e-06 s⁻¹
same,kon,AAV9,36900 M⁻¹ s⁻¹
same,Kd,AAV5,0.318 nM
same,koff,AAV5,1.34e-05 s⁻¹
same,kon,AAV5,42100 M⁻¹ s⁻¹
B4,Kd,AAV8 [2],0.0821 nM
same,koff,AAV8 [2],3.6e-06 s⁻¹
same,kon,AAV8 [2],43900 M⁻¹ s⁻¹
same,Kd,AAV9,0.304 nM
same,koff,AAV9,9e-06 s⁻¹
same,kon,AAV9,29600 M⁻¹ s⁻¹
same,Kd,AAV5,0.0996 nM
same,koff,AAV5,5.7e-06 s⁻¹
same,kon,AAV5,57200 M⁻¹ s⁻¹
